For one substance, molecular brightness, stoichiometry N and oligomeric fraction above 3000 receptors/μm^2 results are on record in publication PMC8260879.

A word on the stoichiometry N: it is a count of units in the complex or per binding partner.

Where only a bound is given, the exact number is not on record here.

The target of experiment [1] is EphA4 WT fused to C-terminal mTURQ or EYFP (human) (UniProt P54764). The experiment can be described thus: fluorescence intensity fluctuation (FIF) analysis; molecular brightness in transfected HEK293 cells in the presence of ephrinA5-Fc.
The target is the same in experiment [2]. The experiment can be described thus: FRET or BRET; FSI-FRET as without ligand but with 0.5 μg/ml ephrinA5-Fc in the hypo-osmotic medium; monomer-dimer equilibrium: dimer to monomers.
Experiment [3] has the same target. The experiment can be described thus: fluorescence intensity fluctuation (FIF) analysis; molecular brightness, no ligand, only the data at receptor concentrations above 3000 receptors/μm^2.
Experiment [4] has the same target. The experiment can be described thus: fluorescence intensity fluctuation (FIF) analysis; molecular brightness in regions of the basolateral membrane of transfected HEK293 cells, no ligand, data over the whole range of receptor concentrations.
Experiment [5] shares this target. The experiment can be described thus: FRET or BRET; FSI-FRET of mTURQ- and EYFP-tagged receptor in the plasma membrane of live HEK293T cells, no ligand, hypo-osmotic medium; fit of a monomer-dimer equilibrium (Equation 2): dimer to monomers; constants in two-dimensional concentration. On the technique in general: In BRET a luciferase serves as donor, and the signal depends on an acceptor being close.

On to “EphA4 WT fused to C-terminal mTURQ or EYFP (from UniProt P54764-1 20-986) (receptor)”, for which the molecular brightness at the maximum of the distribution in experiment [1] is below 2. Moreover, the stoichiometry N in experiment [2], in experiment [3] and in experiment [5] was 2 throughout. This substance had a molecular brightness at the peak of the distribution in experiment [4] below 2. In addition, the oligomeric fraction above 3000 receptors/μm^2 in experiment [5] is above 65%.
